Experimental data published in publication PMC5696595, “Therapeutic Application of Phage Capsule Depolymerases against K1, K5, and K30 Capsulated E. coli in Mice” (Frontiers in Microbiology, 2017).

Assays:
Assay in all cases: SEC; analytical size exclusion on Superose 6 10/300 GL, AKTA FPLC, 4°C, 25 mM sodium phosphate, 150 mM NaCl, pH 7.5, 0.4 ml/min; molecular weights estimated with high molecular weight calibration kit; 200 μg to 1 mg protein loaded
[1] = target: K1F depolymerase (coliphage K1F)
[2] = target: K1H depolymerase (coliphage K1H)
[3] = target: K5 depolymerase (coliphage K1-5)
[4] = target: the molecule itself

K1F depolymerase (enzyme)
stoichiometry N [1]: 3

K1H depolymerase (enzyme)
stoichiometry N [2]: 3

K5 depolymerase (enzyme)
stoichiometry N [3]: 3

B1: K30 gp41 (enzyme)
chain: MDQDIKTVIQYPVGATEFDIPFDYLSRKFVRVSLVTGDNRRLLSNITEYRYVSKTRVKLLVETAGFDRVEIRRFTSASERIVDFSDGSVLRAADLNVSQIQSAHIAEEARDAALMAMPQDDVGNLDARNRRIVRLAPGIDSTDAINKNQLDTTLGEAGGILSQVKDTQKDIQNYIQKFGDDTAMVRGVNWVYNGGSAIGGETSFIIDKSAPVFAVPYIEVNGSRQFRDWQYEYDPATKRVTLVKPLEAGDFVVCLTTENKLPLEDLLASTGGADSIGKAGGGTVQDGLDATIHGTDVHRDTVTPGKLDTLLVYNGTNAGRDLRGHEFVMPHGTFSATRILRTRGISAAESKYTGFTWRGQGSSFTKLVHPATGGQGDIAFMDYLKDVTMSGFMMDNTALGQGTSNQDTRNGQFWIRHSVDSYFDDLRFAGADALTFCLDHCKNIYSTNLKVDYQLRYPTGTGKSPLIVGDYSEQCMFIGGYVKTVSPDGTIKYAGDLADNDQADDTKWAFINLYGLTFEQKPNSNACMWQEGEGAPSNAHFIGMNYINNGVGHGVSEKAVGTDIGSTFRQAQVRAVWNRAEYISIGSHFINNDAKYPAGTGGAGTAAAGGVHNDNAKFTSLVGDYFRGNFADYTDYTGASGVNPENSTHITNAKLTSIIRTSSSSTSQHLAIVNCQLTSAGRISGGGNGRLHVSVVASHCVGPLGQFGHGQSETYLDVINSTFTAAGSTEAMITQSGVGNISFANSTFRDYIRVVDGSHTRVTFRNCTFYTCTFTEDDRKARYVNCRFISCTDAPDSFGLNFAADSLDRPSSLRVNVTLTAGGSYTFPAWVLQGRGAYFINVGGNGANLPACAGIIGKSSATGSGVWTPQWESTPSSIVVSWPSNGYITVTATTAGNYTIGVH
stoichiometry N [4]: 3

B2: K30 gp42 (natural protein)
chain: MLDKLNQPKGSTIGVLKDGRTTQEAIDELTNDVTGSITTTRYASSASQALFPKLIDKMTAYRHGVSGFQDKFRIYGYGSSVGNGATIGGNSSPNTPVAKFFEHFQRTVNKAGIYPFEYSNKSVDGSNINDFLNREWPATVATGVFPDLAVFAYGMNDFPSAQYNAGMTFGANGFKQRLRNAIQKVRDAGGDVVLLTTPHPNIEEYSWELPSSIDMVWPQFAAKPVAGDVLIPPVSQSNVSFDFMGKRITQGVRFLRGNDAMREVAVEMGCVLIDVEKYWFEAVGKYGNVLLFDRVPAMQTVHPNLLGHQQSYWRAIEEFFNNVDSSGWIAPDAKLNQTLDVGGNALNPAKMEADVDLQANGIRQRAFVRRDKSGRVMEELTQDSRVKRTSYTVSDPTVSAPGYSLTWDEWFTRTKGLFTSGETLGIPVNNRTEGRLLVTAWISGQTGWTQLEDYLVSNREGVVLVSKIGSLDNTPPAGGTGTNGQRLFTVSTSANNVVVNILSDNATVKFKLDTFGA
stoichiometry N [4]: 3
